US20220162334A1 (SHANGHAI HENLIUS BIOTECH, published 2022)

B1: N1-tmtIgG1 (antibody)
heavy: EVQLVESGGGLVQPGRSLRLSCAASGFTFDDYAMHWVRQAPGKGLEWVSGISWNSGSIGYADSVRGRFTISRDNAKNSLYLQMNSLRAEDTALYYCAKDMGWELLKTYYYGMDVWGQGTTVTVSSASTKGPSVFPLAPSSSTSGGTAALGCLVKDYFPEPVTVSWNSGALTSGVHTFPAVLQSSGLYSLSSVVTVPSSSLGTQTYICNVNHKPSNTKVDKRVEPKSCDKTHTCPPCPAPEFEGGPSVFLFPPKPKDTLMISRTPEVTCVVVDVSHEDPEVKFNWYVDGVEVHNAKTKPREEQYNSTYRVVSVLTVLHQDWLNGKEYKCKVSNKALPASIEKTISKAKGQPREPQVYTLPPSREEMTKNQVSLTCLVKGFYPSDIAVEWESNGQPENNYKTTPPVLDSDGSFFLYSKLTVDKSRWQQGNVFSCSVMHEALHNHYTQKSLSLSPGK
light: not shown
notes: Heavy chain assembled from the VH entry and the constant region entry named tmtIgG1; also called lead N1; N1 clone, tmtIgG1 isotype
B2: N1-wtIgG2 (antibody)
heavy: EVQLVESGGGLVQPGRSLRLSCAASGFTFDDYAMHWVRQAPGKGLEWVSGISWNSGSIGYADSVRGRFTISRDNAKNSLYLQMNSLRAEDTALYYCAKDMGWELLKTYYYGMDVWGQGTTVTVSSASTKGPSVFPLAPCSRSTSESTAALGCLVKDYFPEPVTVSWNSGALTSGVHTFPAVLQSSGLYSLSSVVTVPSSNFGTQTYTCNVDHKPSNTKVDKTVERKCCVECPPCPAPPVAGPSVFLFPPKPKDTLMISRTPEVTCVVVDVSHEDPEVQFNWYVDGVEVHNAKTKPREEQFNSTFRVVSVLTVVHQDWLNGKEYKCKVSNKGLPAPIEKTISKTKGQPREPQVYTLPPSREEMTKNQVSLTCLVKGFYPSDIAVEWESNGQPENNYKTTPPMLDSDGSFFLYSKLTVDKSRWQQGNVFSCSVMHEALHNHYTQKSLSLSPGK
light: not shown
notes: Heavy chain assembled from VH and the named constant region entry; also called N1 clone, wtIgG2 isotype
B3: N1-mtIgG2 (antibody)
heavy: EVQLVESGGGLVQPGRSLRLSCAASGFTFDDYAMHWVRQAPGKGLEWVSGISWNSGSIGYADSVRGRFTISRDNAKNSLYLQMNSLRAEDTALYYCAKDMGWELLKTYYYGMDVWGQGTTVTVSSASTKGPSVFPLAPCSRSTSESTAALGCLVKDYFPEPVTVSWNSGALTSGVHTFPAVLQSSGLYSLSSVVTVPSSNFGTQTYTCNVDHKPSNTKVDKTVERKSCVECPPCPAPPVAGPSVFLFPPKPKDTLMISRTPEVTCVVVDVSHEDPEVQFNWYVDGVEVHNAKTKPREEQFNSTFRVVSVLTVVHQDWLNGKEYKCKVSNKGLPAPIEKTISKTKGQPREPQVYTLPPSREEMTKNQVSLTCLVKGFYPSDIAVEWESNGQPENNYKTTPPMLDSDGSFFLYSKLTVDKSRWQQGNVFSCSVMHEALHNHYTQKSLSLSPGK
light: not shown
notes: Heavy chain assembled from VH and the named constant region entry; also called N1 clone, mtIgG2 isotype; C219S mutant IgG2
B4: N4#6 (antibody, human IgG2, V domains shown)
VH: QVQLVQSGAEVKKSGSSVKVSCKASGGTFSSYAISWVRQAPGQGLEWMGGIIPIFGTTNYAQKFQGRVTITADESTSIAYMELSSLRSEDTAVYYCASDGAVAAYDAFLIWGQGTMVTVSS
VL: QAVLTQPSSVSGAPGQRVTISCTGTSSNIGAGYDIHWYQQLPGTAPKLLMYRFTRRPSGVPDRFSGSKSGTSASLTITGLQVEDEADYYCQSYDSGQRGWVFGGGTKLTVL
notes: also called N4 variant N4#6
B5: N4#6-2 (antibody, human IgG2, V domains shown)
VH: QVQLVQSGAEVKKSGSSVKVSCKASGGTFSSYAISWVRQAPGQGLEWMGRIIPIFGTTNYAQKFQGRVTITADESTSIAYMELSSLRSEDTAVYYCASDGAVAAYDAFLIWGQGTMVTVSS
VL: QAVLTQPSSVSGAPGQRVTISCTGTSSNIGHGYDIHWYQHLPGTAPKLLMYRFVRRPSGVPDRFSGSKSGTSASLTITGLQVEDEADYYCQSYDSGQRGWVFGGGTKLTVL
notes: also called N4 variant N4#6-2
B6: N4#6-4 (antibody, human IgG2, V domains shown)
VH: QVQLVQSGAEVKKSGSSVKVSCKASGGTFSSYAISWVRQAPGQGLEWMGMIIPIFGTANYAQKFQGRVTITADESTSIAYMELSSLRSEDTAVYYCASDGAVAAYDAFLIWGQGTMVTVSS
VL: QAVLTQPSSVSGAPGQRVTISCTGTSSNIGAGFDIHWYQQLPGTAPKLLMYRFSRRPSGVPDRFSGSKSGTSASLTITGLQVEDEADYYCQSYDSGQRGWVFGGGTKLTVL
notes: also called N4 variant N4#6-4
B7: N4#6-5 (antibody, human IgG2, V domains shown)
VH: QVQLVQSGAEVKKSGSSVKVSCKASGGTFSSYAISWVRQAPGQGLEWMGRIIPIFGTTNYAQKFQGRVTITADESTSIAYMELSSLRSEDTAMYYCASDGAVAAYDAFLIWGQGTMVTVSS
VL: QAVLTQPSSVSGAPGQRVTISCTGTSSNIGTGYDIHWYQQLPGTAPKLLMYRFTRRPSGVPDRFSGSKSGTSASLTITGLQVEDEADYYCQSYDSGQRGWVFGGGTKLTVL
notes: also called N4 variant N4#6-5
B8: N4#4-3 (antibody, human IgG2, V domains shown)
VH: QVQLVQSGAEVKKSGSSVKVSCKASGGTFASYAISWVRQAPGQGLEWMGGIIPIFGTVNYAQKFQGRVTITADESTSIAYMELSSLRSEDTAVYYCASDGAVAAYDAFDIWGQGTMVTVSS
VL: QAVLTQPSSVSGAPGQRVTISCTGTSSNIGQGYDIHWYQQLPGTAPKLLMYRFTRRPSGVPDRFSGSKSGTSASLTITGLQVEDEADYYCQSYDSGLRGWAFGGGTKLTVL
notes: also called N4 variant N4#4-3
B9: N4#5 (antibody, human IgG2, V domains shown)
VH: QVQLVQSGAEVKKSGSSVKVSCKASGGTFSSYAIAWVRQAPGQGLEWMGGIIPIFGTVNYAQKFQGRVTITADESTSIAYMELSSLRSEDTAVYYCASDGAVAAYDAFSIWGQGTMVTVSS
VL: QAVLTQPSSVSGAPGQRVTISCTGTSSNIGAGYDIHWYQQLPGTAPKLLMYRFTRRPSGVPDRFSGSKSGTSASLTITGLQVEDEADYYCQSYDSGLRGLVFGGGTKLTVL
notes: also called N4 variant N4#5
B10: N4#6-3 (antibody, human IgG2, V domains shown)
VH: QVQLVQSGAEVKKSGSSVKVSCKASGGTFSSYAISWVRQAPGQGLEWMGGIIPIFGTANYAQKFQGRVTITADESTSIAYMELSSLRSEDTAVYYCASDGAVAAYDAFLIWGQGTMVTVSS
VL: QAVLTQPSSVSGAPGQRVTISCTGTSSNIGLGYDIHWYQHLPGTAPKLLMYRFDRRPSGVPDRFSGSKSGTSASLTITGLQVEDEADYYCQSYDSGQRGWVFGGGTKLTVL
notes: also called N4 variant N4#6-3
B11: N1#9 (antibody, human IgG2, V domains shown)
VH: EVQLVESGGGLVQPGRSLRLSCAASGFTFDDYAMHWVRLAPGKGLEWVSGISWNSGSIGYADSVRGRFTISRDNAKNSLYLQMNSLRAEDTALYYCAKDMGWSLLKTNYYGMDVWGQGTTVTVSS
VL: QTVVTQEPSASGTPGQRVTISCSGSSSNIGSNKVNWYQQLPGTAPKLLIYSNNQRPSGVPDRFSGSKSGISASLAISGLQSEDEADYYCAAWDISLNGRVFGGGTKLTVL
notes: also called N1 variant N1#9
B12: N1#2 (antibody, human IgG2, V domains shown)
VH: EVQLVESGGGLVQPGRSLRLSCAASGLTFDDYAMHWVRQAPGKGLEWVSGISWNSNSIGYADPVRGRFTISRDNAKNSLYLQMNSLRAEDTALYYCAKDMGWELLKTSYYGMDVWGQGTTVTVSS
VL: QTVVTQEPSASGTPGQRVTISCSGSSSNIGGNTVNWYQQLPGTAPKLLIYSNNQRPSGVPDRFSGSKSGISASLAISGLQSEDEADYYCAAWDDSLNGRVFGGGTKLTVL
notes: also called N1 variant N1#2

These binders were tested against T1, human CD73 on CD73-expressing human tumor cells (MDA-MB-231, NCI-H292) (human, UniProt P21589 27-549) (assay: flow cytometry on MDA-MB-231 cells, biotin-labeled antibody, streptavidin-FITC (FIG. 5A)).
T1 construct: whole, on cells; The cell line of each result is named under assay or readout; also called cell surface CD73; surface CD73
T1 sequence (looked up): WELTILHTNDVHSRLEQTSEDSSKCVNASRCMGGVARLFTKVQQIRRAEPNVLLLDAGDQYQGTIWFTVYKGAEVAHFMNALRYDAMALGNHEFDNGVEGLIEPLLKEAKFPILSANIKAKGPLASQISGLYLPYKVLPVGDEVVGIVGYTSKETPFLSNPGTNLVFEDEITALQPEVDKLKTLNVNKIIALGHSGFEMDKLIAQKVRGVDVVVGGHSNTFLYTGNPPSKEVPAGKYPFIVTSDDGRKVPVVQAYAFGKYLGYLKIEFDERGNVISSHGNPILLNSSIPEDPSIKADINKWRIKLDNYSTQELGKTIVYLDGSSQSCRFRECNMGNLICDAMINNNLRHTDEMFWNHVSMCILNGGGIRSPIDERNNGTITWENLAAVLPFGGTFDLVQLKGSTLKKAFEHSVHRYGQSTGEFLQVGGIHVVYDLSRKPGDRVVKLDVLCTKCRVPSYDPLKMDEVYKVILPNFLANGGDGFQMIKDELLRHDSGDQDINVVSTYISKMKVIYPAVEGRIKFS
Method: The binding of anti-CD73 antibodies to cell surface CD73 were tested by incubating the MDA-MB-231 cells with the serially diluted biotin-labeled anti-CD73 antibodies in FACS buffer (PBS with 2% FBS) at 4° C. for 30 minutes. The cells were washed with FACS buffer and the binding was detected with streptavidin-FITC at 4° C. for 30 minutes. Flow cytometric analyses were performed using the Cytomics FC500 (Beckman Coulter Inc.).
The variable sequences of N1, N2 and N4 were cloned into human wild-type or C219S mutant IgG2 Fc backbone. Different IgG isotypes of N1 (FIG. 5A), N2 (FIG. 5B), N4 (FIG. 5C) were tested the binding to CD73-expressing human MDA-MB-231 cells by flow cytometry. Anti-CD73 ref-1 antibody and HLX01 (anti-CD20) were used as the positive and negative control respectively.

Does B1 bind?
Result: binds

Does B2 bind?
Result: binds

Does B3 bind?
Result: binds

What follows are binders tested against T1, human CD73 on CD73-expressing human … (assay: flow cytometry on MDA-MB-231 and NCI-H292 cells (FIGS. 11A, 11B)).
Method: Whole cell binding ability of anti-CD73 antibodies were tested by incubating the MDA-MB-231 or NCI-H292 cells with the serial-diluted antibodies in FACS buffer (PBS with 2% FBS) at 4° C. for 30 minutes. Cells were washed with FACS buffer and the binding was detected with FITC-labeled goat anti-human IgG (H+L) antibodies (or PE-labeled goat anti-human IgG Fcγ) at 4° C. for another 30 minutes. The binding of antibodies to cell surface was measured by the mean fluorescent intensity (MFI) of staining. Flow cytometric analyses were performed using the Cytomics FC500 or CytoFLEX flow cytometry (Beckman Coulter Inc.). FIGS. 2B and 2C show selected anti-CD73 antibodies binding to CD73-expressing human tumor cells MDA-MB-231 (human breast adenocarcinoma) cells (FIG. 2B), and NCI-H292 (human mucoepidermoid pulmonary carcinoma) cells (FIG. 2C).
FIGS. 11A-11B also show CD73 binding of N1 and N4 variants. Selected variants were tested the binding to CD73-expressing MDA-MB-231 (FIG. 11A) and NCI-H292 (FIG. 11B) cells by flow cytometry. HLX01 (anti-CD20) was used as the negative control. […] N4 variants have better CD73 binding ability than N1 variants in these two cell lines. The rank of the whole cell binding ability is: N4#5, N4#6-4, N4#6-5>N4#6-2>N4#4-3, N4#6, N4#6-3, N1#9>N1#2.

Does B4 bind?
Result: binds

Does B5 bind?
Result: binds

Does B6 bind?
Result: binds

Does B7 bind?
Result: binds

Does B8 bind?
Result: binds

Does B9 bind?
Result: binds

Does B10 bind?
Result: binds

Does B11 bind?
Result: binds

Does B12 bind?
Result: binds
